Numbering of substitutions follows the chain as printed. Blank lines part the entries; values can stand above or below the binder they belong to.
Legend:
[1] = biological target: T1, human AXL expressed on the cell surface of tumor cell lines (human, UniProt P30530 26-894); assay: cell-based or functional assay
T1 sequence (looked up): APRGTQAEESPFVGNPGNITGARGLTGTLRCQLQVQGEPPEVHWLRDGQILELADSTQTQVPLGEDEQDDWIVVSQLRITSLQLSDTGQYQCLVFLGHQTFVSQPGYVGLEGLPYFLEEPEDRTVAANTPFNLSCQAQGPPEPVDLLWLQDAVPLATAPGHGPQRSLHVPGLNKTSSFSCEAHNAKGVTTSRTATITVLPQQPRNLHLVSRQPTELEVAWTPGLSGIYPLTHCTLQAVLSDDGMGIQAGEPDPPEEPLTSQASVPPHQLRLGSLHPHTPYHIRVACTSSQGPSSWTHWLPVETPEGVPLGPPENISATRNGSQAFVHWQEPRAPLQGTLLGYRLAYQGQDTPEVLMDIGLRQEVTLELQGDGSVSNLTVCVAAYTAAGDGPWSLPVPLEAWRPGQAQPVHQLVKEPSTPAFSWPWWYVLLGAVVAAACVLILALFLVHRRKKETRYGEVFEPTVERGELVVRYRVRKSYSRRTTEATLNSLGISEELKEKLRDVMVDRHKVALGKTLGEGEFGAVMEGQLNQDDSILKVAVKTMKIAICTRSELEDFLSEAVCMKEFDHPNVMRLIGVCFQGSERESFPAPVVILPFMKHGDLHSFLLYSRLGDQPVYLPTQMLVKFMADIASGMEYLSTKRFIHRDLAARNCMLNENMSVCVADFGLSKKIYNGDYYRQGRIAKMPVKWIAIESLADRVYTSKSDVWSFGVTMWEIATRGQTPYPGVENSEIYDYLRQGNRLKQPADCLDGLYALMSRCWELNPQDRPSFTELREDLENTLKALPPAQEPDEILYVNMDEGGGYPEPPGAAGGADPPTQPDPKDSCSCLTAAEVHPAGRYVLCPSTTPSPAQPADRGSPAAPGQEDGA

[2] = biological target: T2, recombinant human AXL extracellular domain, C-terminally His8-tagged (rhAXL-ECD) (human, UniProt P30530 26-451); assay: SPR, AXL ECD immobilized, VHH monomer flowed, single-cycle kinetics
T2 construct: Made in CHO cells; also called (rh)AXL-ECD His8; human AXL ECD
T2 sequence: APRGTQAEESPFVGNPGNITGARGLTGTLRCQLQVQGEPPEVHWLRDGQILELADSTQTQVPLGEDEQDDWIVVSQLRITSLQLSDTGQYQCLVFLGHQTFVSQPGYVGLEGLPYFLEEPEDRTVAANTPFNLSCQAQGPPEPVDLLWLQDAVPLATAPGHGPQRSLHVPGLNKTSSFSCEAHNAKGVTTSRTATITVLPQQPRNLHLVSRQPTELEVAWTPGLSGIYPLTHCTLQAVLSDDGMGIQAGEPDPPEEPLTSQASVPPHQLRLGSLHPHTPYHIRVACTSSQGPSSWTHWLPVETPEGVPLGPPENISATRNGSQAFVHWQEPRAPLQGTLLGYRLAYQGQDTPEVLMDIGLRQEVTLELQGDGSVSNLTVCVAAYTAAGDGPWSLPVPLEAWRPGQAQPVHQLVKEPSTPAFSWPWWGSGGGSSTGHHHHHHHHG
Procedure: (§1) For VH Hs and VHH-Fcs, binding to human and cynomolgus AXL ECD was assessed using either a Biacore T200 instrument or a Biacore 3000 instrument. Either human AXL ECD or anti-human Fc antibody was immobilized on a research-grade CM5 series S sensor chip (T200, rhAXL ECD) or a C1 sensor chip (3000, anti-human Fc) using amine coupling in acetate buffer. VHH-Fcs were captured on anti-human Fc surfaces. Either monomeric VHHs (for rhAXL ECD surfaces) or human and cyno AXL ECD (for VHH-Fc surfaces) were flowed over the surfaces at different concentration ranges. Running buffers were HBS-EP (3000) and HBS-EP+(T200). Flow rates were 10-40 ul/min. All binding studies were performed at 25° C. Surfaces were regenerated using 10 mM glycine, pH 1.5.

[3] = biological target: T2, recombinant human AXL extracellular …; assay: SPR, AXL ECD immobilized, VHH monomer flowed, multi-cycle kinetics
Procedure: as §1

[4] = biological target: T3, recombinant cynomolgus AXL extracellular domain (cynomolgus); assay: SPR Biacore T200, mAb captured on anti-Fc, AXL ECD flowed, single-cycle kinetics
T3 construct: range 1-449; also called Cyno AXL; cyno AXL ECD
Procedure: (§2) Surface plasmon resonance. For murine mAbs, binding to human and cynomolgus AXL ECD was assessed using a Biacore T200 instrument. Briefly, either anti-mouse or anti-human Fc antibody was immobilized on a research-grade CM5 series S sensor chip using amine coupling in acetate buffer. Murine or recombinant chimeric murine-human mAbs (mouse VH/VL; human constant regions) were captured, then recombinant human or cyno AXL ECD was flowed over the surface at different concentration ranges (0.1-500 nM) depending on the antibody. The running buffer was PBS/Tween-20 and the flow rate 100 uL/min. All binding studies were performed at 25° C. Surfaces were regenerated using 10 mM glycine, pH 1.5.

[5] = biological target: T2, recombinant human AXL extracellular …; assay: as above
Procedure: as §2

B1: hFc-F111-5E9-VC-MMAE (antibody, human IgG1, kappa, V domains shown)
VH: QIQLVQSGPELKKPGETVKISCKASGYTFTKYGMNWVKQAPGKGLKWMGWINTYTGEPTYADDFKGRFAFSLETSASTAYLQINNLTTEDMVTYFCAKGGYYSNPIYPMDYWGQGTSVTVSS
VL: DIQMTQTTSSLSASLGDRVTISCRASQDINNYLNWYQQKPDGTVKLLIYYISRLHSGVPSRFSGSGSGTDYSLTISNLELEDVATYFCQQGNTLPFTFGSGTKLEIKR
modifications: VC-MMAE conjugate; attachment sites not given
IC50 of growth inhibition (CellTiterGlo, 5 days) of NCI-H292 cells, -Gas6 [1]: ~1 nM

B3: hFc-F107-8D12-DM1 (antibody, human IgG1, kappa, V domains shown)
VH: QVQLQQPGAELVKPGASVQLSCKASGYTFISFWINWVKQRPGQGLEWMGNIFPGSSSTNYNEKFKSKATLTVDKSSSTAYMQLSSLTSEDSAVYFCARDYYGGSPDYWGQGTTLTVSS
VL: DIVMSQSPSSLAVSAGERVTMSCKSSQSLLNTRTRKNYLAWYQQKPGQSPKLLIYWASTRESGVPDRFTGSGSGTDFTLTISSVQAEDLAVYYCKQSYNLWTFGGGTKLEIKR
modifications: DM1 through SMCC linker on lysine residues; sites not given
IC50 of growth inhibition (CellTiterGlo, 5 days) of NCI-H292 cells, -Gas6 [1]: 0.011 nM
IC50 of growth inhibition of NCI-H292 cells, +Gas6 (2 µg/mL) [1]: 0.296 nM

B4: mIgG-F155-3C7-DM1 (antibody, V domains shown)
VH: QVQLQQPGTELVKPGASVKLSCKASGYIFTNFWINWVKQRPGQGLEWIGNIFPGSNSSNYNEKFKNKATLTVDKSSSTAYMHLSSLTSEDSAVYYCVRDYYGGSPDYWGQGTTLTVSS
VL: DIVMSQSPSSLAVSAGEKVTMSCKSSQSLLNSKTRKNYLAWYQQKPGQSPKLLIYWASTRESGVPARFTGSGSGTDFTLTISSVQAEDLAIYYCKHSYNLWTFGGGTKLEIR
modifications: DM1 through SMCC linker on lysine residues of the antibody; sites not given
IC50 of growth inhibition (CellTiterGlo, 5 days) of NCI-H292 cells, -Gas6 [1]: 0.327 nM
IC50 of growth inhibition of NCI-H292 cells, +Gas6 (2 µg/mL) [1]: 3.9 nM

B6: NRC-sdAb003 (VHH monomer) (VHH)
VHH: QVQLVESGGGLVQAGGSLRLSCAASGVTLDYTAIGWFRQAPGKERELVAAITSGGNTDYAESAKGRFRISRDNSKNTIYLQMNSLKPEDTGVYYCAARRGGARGEYDYWDQGTQVTVSS
notes: Llama VHH monomer; not shown: 6xHis and Myc tags
Kd [2]: 955 nM
koff [2]: 0.0054 s⁻¹
kon [2]: 8500 M⁻¹ s⁻¹

B8: NRC-sdAb006 (VHH monomer) (VHH)
VHH: QVKLEESGGGLVQAGASLRLSCVASESIFGFNTMGWYRQAPGNERELVASISNSKRTMYADSVKGRFTISRDNAKNTVNLQMNNLKPEDTAVYYCRAWGIITSATVYWGQGTQVTVSS
notes: as for B6
Kd [3]: 19 nM
koff [3]: 0.0045 s⁻¹
kon [3]: 240000 M⁻¹ s⁻¹

B9: hFC-F111-3C8 (antibody, human IgG1, kappa, V domains shown)
VH: QVQLQQPGAELGKPGTSVKLSCKASGYTFTSYWMHWVKRVPGQGLEWIGNINPNSTSADYNEKFKRKATLTVDKSSSTAYMQLSTLTSEDSAVYYCTRPLMGPYWYFDVWGTGTTVTVSS
VL: QIVLTQSPAIMSASPGEKVTISCSASSSVSYMYWYQQKPGSSPKPWIYRTSNLASGVPARFSGSGSGTSYSLTISSMEAEDAATYYCQQYHNYPPTFGGGTKLEIKR
notes: Chimeric mAb, human IgG1 / human kappa constant regions; also called mAb F111-3C8; chimeric F111-3C8
Kd [4]: 18 nM
koff [4]: 0.0011 s⁻¹
kon [4]: 60000 M⁻¹ s⁻¹
Kd [5]: 12 nM
koff [5]: 0.001 s⁻¹
kon [5]: 86000 M⁻¹ s⁻¹

B10: NRC-sdAb001 (VHH monomer) (VHH)
VHH: QVKLEESGGGLVQAGGSLRLSCTASASISSFDIMGWYRQAPGKQRELVAAITTLDIANYRDSVKGRFTISRDNAKNTVYLQMDSLKPEDTARYHCAAFQSDQNYWGQGTQVTVSS
notes: Llama VHH made as 6xHis- and Myc-tagged monomer in E. coli; not shown: 6xHis and Myc tags
Kd [2]: 4 nM
koff [2]: 0.037 s⁻¹
kon [2]: 8.5e+06 M⁻¹ s⁻¹

Second part, the binder after the results:

IC50 of growth inhibition (CellTiterGlo, 5 days) of NCI-H292 cells, -Gas6 [1]: 0.014 nM
IC50 of growth inhibition of NCI-H292 cells, +Gas6 (2 µg/mL) [1]: 0.098 nM
B2: hFc-F107-7H5-DM1 (antibody, human IgG1, kappa, V domains shown)
VH: QVQLQQPGAELVKPGASVKLSCKASGYTFTSYWINWVKQRPGQGLEWIGNIYPDSSSTNYNEKFKSKATLTVDKSSTTAYIQFSSLTSEDSAVYYCTRDTYGGSPDYWGQGTTLTVSS
VL: B3 VL with R18K, T32S, N37I, E61Q
modifications: DM1 through SMCC linker on lysine residues; sites not given

IC50 of growth inhibition (CellTiterGlo, 5 days) of NCI-H292 cells, -Gas6 [1]: 0.015 nM
IC50 of growth inhibition of NCI-H292 cells, +Gas6 (2 µg/mL) [1]: 0.013 nM
B5: mIgG-F149-4G4-DM1 (antibody, V domains shown)
VH: QIQLVQSGPELKKPGETVKISCKTSGYTFTYYGINWVKQAPGKGLEWMGWINTYLGEPTYADDFKGRFAFSLETSASTAYLQINNLRDEDMATYFCTRGTMSYSFDYWGQGTALTVSS
VL: QNVLTQSPAIMSASPGEEVTMTCRASSSVSSSYLHWYQQKSGASPKLWIYSTSKLASGVPARFSGSGSGTSYSLTISSVEAEDAATYYCHQYSGDPLTFGSGTKLEVK
modifications: DM1 through SMCC linker on lysine residues of the antibody; sites not given

Kd [3]: 58 nM
koff [3]: 0.0097 s⁻¹
kon [3]: 170000 M⁻¹ s⁻¹
B7: NRC-sdAb005 (VHH monomer) (VHH)
VHH: QVKLEESGGGLAQAGGSLRLSCAASGSISSINTIGWFRQAPGKQRELVAASDSGANRNYADSVKGRFTISRDNAKNTVYLQMNNLKPEDTAIYYCRAWGTGTISTMYWGQGTQVTVSS
notes: as for B6
